Assay results taken from US20240376151A1, “STAPLED PEPTIDES AND METHODS THEREOF” (FOG PHARMACEUTICALS, INC., priority 2022, published 2024).

Biological target: T1, RNF31 PUB domain (Homo sapiens, UniProt Q96EP0)
T1 construct: MBP-TEV (N, cleaved yes); made in house; host or cells: E. coli BL21 (DE3) pLysS
T1 sequence (Q96EP0 1-179): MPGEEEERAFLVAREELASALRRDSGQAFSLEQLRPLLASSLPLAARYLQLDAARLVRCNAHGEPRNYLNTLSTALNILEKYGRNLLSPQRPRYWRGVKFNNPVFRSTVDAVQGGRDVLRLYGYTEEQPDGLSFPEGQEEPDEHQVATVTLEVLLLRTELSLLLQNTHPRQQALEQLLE
Assay: Phage Library Screening with NGS, RNF31 PUB domain
Type: binding
Details: for Phage library screen NGS readout, Target Concentration 10 / Phage library screen NGS readout, Target Concentration 30 / Phage library screen NGS readout, Target Concentration 100 / Phage library screen NGS readout, Target Concentration 300 / Phage library screen NGS readout, Target Concentration 1000: RNF31 PUB domain clusters C41-C45; for Phage library screen NGS readout, BLANK: clusters C41-C45

[1] = target concentration 1000, first column
[2] = target concentration 1000, second column

Sequence | Phage library screen NGS readout, Target Concentration 10 | Phage library screen NGS readout, Target Concentration 30 | Phage library screen NGS readout, Target Concentration 100 | Phage library screen NGS readout, Target Concentration 300 | Phage library screen NGS readout, Target Concentration 1000 [1] | Phage library screen NGS readout, Target Concentration 1000 [2] | Phage library screen NGS readout, BLANK (column 1 of 5) | Phage library screen NGS readout, BLANK (column 2 of 5) | Phage library screen NGS readout, BLANK (column 3 of 5) | Phage library screen NGS readout, BLANK (column 4 of 5) | Phage library screen NGS readout, BLANK (column 5 of 5)
DPAYWDCMYAAFYCDDI | 0 | 0 | 0 | 3 | 3 | 8 | 0 | 0 | 0 | 0 | 2
DPAWTQCDWAALYCEDQ | 0 | 1 | 0 | 1 | 7 | 10 | 0 | 0 | 0 | 0 | 0
DPAFMDCVFAAAVCATY | 0 | 0 | 0 | 2 | 8 | 8 | 0 | 1 | 1 | 0 | 0
DPAEWDCLYAAFDCFAN | 2 | 2 | 0 | 3 | 15 | 7 | 0 | 0 | 0 | 0 | 0
DPAYYTCDWAAIYCDYH | 0 | 0 | 0 | 1 | 6 | 6 | 0 | 1 | 0 | 0 | 0
DPAYDYCLYAAYDCTQT | 0 | 0 | 1 | 5 | 48 | 38 | 1 | 0 | 0 | 1 | 0

Now from value to sequence:

Phage library screen NGS readout, Target Concentration 10 | Phage library screen NGS readout, Target Concentration 30 | Phage library screen NGS readout, Target Concentration 100 | Phage library screen NGS readout, Target Concentration 300 | Phage library screen NGS readout, Target Concentration 1000 [1] | Phage library screen NGS readout, Target Concentration 1000 [2] | Phage library screen NGS readout, BLANK (column 1 of 5) | Phage library screen NGS readout, BLANK (column 2 of 5) | Phage library screen NGS readout, BLANK (column 3 of 5) | Phage library screen NGS readout, BLANK (column 4 of 5) | Phage library screen NGS readout, BLANK (column 5 of 5) | Sequence
0 | 0 | 3 | 31 | 161 | 145 | 1 | 2 | 0 | 0 | 0 | DPAFTDCQLAAAVCMTY
0 | 0 | 0 | 2 | 12 | 5 | 0 | 0 | 0 | 0 | 0 | DPAWEWCLYAAAECIED
0 | 0 | 1 | 14 | 44 | 32 | 0 | 0 | 0 | 0 | 0 | DPAEEYCLEAAILCTYD
0 | 0 | 0 | 2 | 8 | 4 | 0 | 3 | 0 | 0 | 2 | DPAYWHCLYAAASCDDI
0 | 1 | 0 | 5 | 7 | 5 | 1 | 2 | 1 | 1 | 1 | DPAWWNCLYAANTCVED
0 | 0 | 0 | 13 | 49 | 33 | 1 | 0 | 0 | 0 | 0 | DPAHANCQLAADVCSTY
0 | 0 | 0 | 3 | 3 | 8 | 0 | 0 | 0 | 1 | 0 | DPAYDWCMYAAHECVDQ
0 | 0 | 1 | 12 | 40 | 44 | 0 | 0 | 1 | 0 | 0 | DPARRECWDAAILCTYY
